Measured values: patent US20020051974
Read-outs that look alike come from different tables or passages of the source.

Legend:
[1] = tested on: T1, VEGF (vascular endothelial growth factor), P15692-4; assay: filter; conditions: 50% of RNA bound, PBS
T1 sequence: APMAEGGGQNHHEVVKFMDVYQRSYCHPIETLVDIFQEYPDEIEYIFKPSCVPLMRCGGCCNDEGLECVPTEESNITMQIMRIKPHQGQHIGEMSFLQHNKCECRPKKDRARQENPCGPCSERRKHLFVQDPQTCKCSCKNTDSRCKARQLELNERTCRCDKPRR

[2] = tested on: T1, VEGF (vascular endothelial growth factor), P15692-4; conditions: CITED Jellinek et al 1994, cited from earlier work

Sequence	EC50 ([1]; 1 mM MgCl2, room temperature) [µM]	also measured
GGGAAUGGAUCCACAUCUACGAAUUCAGGCAGCGUAGAGGGUUCACUCUGCCGAGUUUCACUGCAGACUUGACGAAGCUU [V01]	0.019	
GGGAAUGGAUCCACAUCUACGAAUUCAGGUGGAAAGCAAGUUCCGCGCACGUUAAUUUCACUGCAGACUUGACGAAGCUU [V08]	0.0144	
GGGAAUGGAUCCACAUCUACGAAUUCCGCGCACGUAGGUUGGGUGUAACUGCGUUGUUCACUGCAGACUUGACGAAGCUU [V05]	0.0153	
GGGAAUGGAUCCACAUCUACGAAUUCCGCGCACGUAGGUUGGGUGUAACUGCGUUGUUCACUGCAGACUUGACGAAGCUU [V06]		EC50 ([1]; 1 mM MgCl2, printed sequence identical to V05): 0.0369 µM
GGGAAUGGAUCCACAUCUACGAAUUCCGCGCACGUCACGGGCCGACACGAAUAUGGUUCACUGCAGACUUGACGAAGCUU [V10]	0.0314	
GGGAAUGGAUCCACAUCUACGAAUUCCGCGCGCGCUAACCUUGNGGNGNAAGUAUGUUCACUGCAGACUUGACGAAGCUU [V13]		EC50 ([1]; 1 mM MgCl2, sequence contains N): 0.00832 µM
GGGAAUGGAUCCACAUCUACGAAUUCCGUUCUGCCGAGACUGCACGUGUGCUUGAAUUCACUGCAGACUUGACGAAGCUU [V09]	0.0242	
GGGAAUGGAUCCACAUCUACGAAUUCGAGGGUCCGUCUGCCGAGUCUUGUAACACCUUCACUGCAGACUUGACGAAGCUU [V02]	0.0213	
GGGAAUGGAUCCACAUCUACGAAUUCGAUGGCGUUAGUGGGAAUGAUUCUGCCGAGUUCACUGCAGACUUGACGAAGCUU [V07]	0.0173	
GGGAAUGGAUCCACAUCUACGAAUUCGGAUAUUCCGCGCACGUCAUUUCAUCAGCUUUCACUGCAGACUUGACGAAGCUU [V19]	0.00761	
GGGAAUGGAUCCACAUCUACGAAUUCGGGAACAGCUCUAUUCCGCGCACGUUUGAGUUCACUGCAGACUUGACGAAGCUU [V04]	0.00452	
GGGAAUGGAUCCACAUCUACGAAUUCUGUAAGAUUGGUCUCCAGACUGCCGAGCUGUUCACUGCAGACUUGACGAAGCUU [V18]		EC50 ([1]; 1 mM MgCl2, text gives 8.5): 0.00852 µM
GGGAAUGGAUCCACAUCUACGAAUUCUUUGAAGAGGGUCAAUCCGCGCACGUUACGUUCACUGCAGACUUGACGAAGCUU [V03]	0.0326	
GGGAGCUCAGAAUAAACGCUCAAACGGUUCUGUGUGUGGACUAGCCGCGGCCGUUCGACAUGAGGCCCGGAUCCGGC [VEGF126 (RNA transcript of printed DNA)]	0.0199	Kd ([2]; unit not repeated for this value): 0.00014 µM
GGGAGCUCAGAAUAAACGCUCAAGACCCAUCGUCAACGGUUGAGUCUGUCCCGUUCGACAUGAGGCCCGGAUCCGGC [VEGF40 (RNA transcript of printed DNA)]	0.00415	Kd [2]: 0.00019 µM
